Source: US20060281899A1, “Mutants of biotin binding protein” (priority 2002, published 2006)

Experiment: Differential scanning calorimetry of avidin and AVR4/5 forms
Type: physicochemical
Protocol: The thermodynamics of the heat-induced unfolding of the proteins were studied using DSC. The transition midpoint of heat-induced denaturation (Tm) of the avidin and different AVR4/5 forms was studied using a Nano II differential scanning calorimeter (Calorimetric Sciences Corporation, Provo, Utah, USA). The reference cell was filled with buffer whereas the sample cell was filled with proteins dissolved in 50 mM sodium phosphate buffer, pH 7.0 containing 100 mM NaCl. Avidin and AVR4/5(C124S) were also analyzed in 50 mM Na-acetate pH 4.0 containing 100 mM NaCl. Furthermore, AVR4/5 was analyzed in the presence of 2-mercaptoethanol (0.4% v/v). The samples (1.6-9.6 μM) were analyzed both in the absence and presence of a three fold molar excess of biotin/subunit. All samples were degassed before being loaded into the DSC. The thermograms were recorded as a function of temperature; between 25 and 130° C. at a rate of 55.6° C./h (Gonzalez, M., Argarana, C. E. & Fidelio, G. D. (1999) Biomol. Eng. 16, 67-72; Nordlund, H. R., Laitinen, O. H., Uotila, S. T., Nyholm, T., Hytönen, V. P., Slotte, J. P. & Kulomaa, M. S. (2003) J. Biol. Chem. 278, 2479-2483). Data was analyzed using Microcal Origin 6.0 and Cpcalc 2.1 (Applied Thermodynamics, Hunt Valley, Md.). The change in heat capacity upon unfolding (ΔCp) was measured for avidin and AVR4/5(C124S) using DSC data from measurements in pH 4.0 and 7.0. ΔCp was then obtained from the slope of ΔH vs. Tm (Liu, Y. & Sturtevant, J. M. (1996) Biochemistry 35, 3059-3062).

B1: AVR4/5 + 2-mercaptoethanol: AVR4/5 analyzed in the presence of 2-mercaptoethanol (0.4% v/v) (protein, UniProt P56734 25-150, looked up)
Avidin-related protein 4/5: ARKCSLTGKWTNNLGSIMTIRAVNSRGEFTGTYLTAVADNPGNITLSPLLGIQHKRASQPTFGFTVHWNFSESTTVFTGQCFIDRNGKEVLKTMWLLRSSVNDISYDWKATRVGYNNFTRLCTVEE
modifications: with 2-mercaptoethanol
In the case of B1, the “DSC Tm(−biotin)” value (50 mM sodium phosphate pH 7.0, 100 mM NaCl) is reported as 106.5 ± 0.3 °C, the ΔTm (change in Tm upon addition of a three-fold molar excess of biotin) is reported as 18.7 °C and the ΔH of unfolding (sample without biotin) is reported as 169 ± 6.21 kcal/mol. The “DSC Tm (+biotin)” value (three-fold molar excess of biotin, pH 7.0) was 125.2 ± 0.1 °C.
